# Measured values published in publication PMC9482650, “Quantitative fragmentomics allow affinity mapping of interactomes” (Nature Communications, 2022).
# Positions count from the first letter of the chain named.
# T1: APBA1_1, Q02410
# T1 sequence (Q02410 651-752, limits assumed, looked up): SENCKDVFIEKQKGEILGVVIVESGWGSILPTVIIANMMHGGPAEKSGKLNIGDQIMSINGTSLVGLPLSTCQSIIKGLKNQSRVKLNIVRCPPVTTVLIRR
# T2: APBA1_2, Q02410
# T2 sequence (Q02410 742-832, limits assumed, looked up): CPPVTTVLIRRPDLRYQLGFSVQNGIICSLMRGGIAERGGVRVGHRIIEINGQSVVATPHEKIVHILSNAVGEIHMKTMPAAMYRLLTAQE
# T3: APBA2_2, Q99767
# T3 sequence (Q99767 654-744, limits assumed, looked up): T2 sequence (Q02410 742-832, limits assumed, looked up) with R10K, R15K, P59A, H65Q, I66A, A70S, Y84F, A89G
# T4: ARHGEF11, O15085
# T4 sequence (O15085 42-136, limits assumed, looked up): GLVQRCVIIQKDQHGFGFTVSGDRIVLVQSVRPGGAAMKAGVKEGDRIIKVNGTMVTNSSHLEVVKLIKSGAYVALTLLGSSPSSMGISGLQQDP
# T5: DFNB31_1, Q9P202
# T5 sequence (Q9P202 135-233, limits assumed, looked up): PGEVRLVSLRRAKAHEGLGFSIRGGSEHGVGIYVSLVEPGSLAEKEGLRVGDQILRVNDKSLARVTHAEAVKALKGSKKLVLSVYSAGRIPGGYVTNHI
# T6: DLG3_3, Q92796
# T6 sequence (Q92796 374-475, limits assumed, looked up): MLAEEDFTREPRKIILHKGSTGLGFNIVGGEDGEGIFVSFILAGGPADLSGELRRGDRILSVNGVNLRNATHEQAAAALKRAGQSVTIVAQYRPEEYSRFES
# T7: GRIP1_2, Q9Y3R0
# T7 sequence (Q9Y3R0 145-248, limits assumed, looked up): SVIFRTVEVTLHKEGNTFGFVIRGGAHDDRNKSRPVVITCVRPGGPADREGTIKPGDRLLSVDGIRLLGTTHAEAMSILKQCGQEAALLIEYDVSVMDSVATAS
# T8: GRIP1_3, Q9Y3R0
# T8 sequence (Q9Y3R0 247-346, limits assumed, looked up): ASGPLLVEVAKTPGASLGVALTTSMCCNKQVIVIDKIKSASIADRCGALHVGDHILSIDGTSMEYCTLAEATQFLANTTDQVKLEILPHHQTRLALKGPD
# T9: GRIP1_4, Q9Y3R0
# T9 sequence (Q9Y3R0 467-571, limits assumed, looked up): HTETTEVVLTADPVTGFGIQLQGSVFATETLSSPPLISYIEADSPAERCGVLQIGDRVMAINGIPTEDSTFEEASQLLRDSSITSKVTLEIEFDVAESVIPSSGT
# T10: HTRA4, P83105
# T10 sequence (P83105 378-476, limits assumed, looked up): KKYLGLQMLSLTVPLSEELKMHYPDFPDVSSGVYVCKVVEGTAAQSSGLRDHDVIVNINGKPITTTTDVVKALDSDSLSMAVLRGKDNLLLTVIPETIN
# T11: MPP6, Q9NZW5
# T11 sequence (Q9NZW5 125-219, limits assumed, looked up): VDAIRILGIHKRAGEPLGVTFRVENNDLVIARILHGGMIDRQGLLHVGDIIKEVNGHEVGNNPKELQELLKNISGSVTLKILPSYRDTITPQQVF
# T12: MPP7, Q5T2T1
# T12 sequence (Q5T2T1 134-230, limits assumed, looked up): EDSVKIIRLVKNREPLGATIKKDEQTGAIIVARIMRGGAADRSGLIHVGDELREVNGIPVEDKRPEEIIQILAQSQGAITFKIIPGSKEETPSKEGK
# T13: PDZD7_3, Q9H5P4
# T13 sequence (Q9H5P4 857-944, limits assumed, looked up): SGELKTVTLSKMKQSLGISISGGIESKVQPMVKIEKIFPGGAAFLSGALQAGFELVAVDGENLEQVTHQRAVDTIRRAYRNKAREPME
# T14: SNTG2, Q9NY99
# T14 sequence (Q9NY99 68-166, limits assumed, looked up): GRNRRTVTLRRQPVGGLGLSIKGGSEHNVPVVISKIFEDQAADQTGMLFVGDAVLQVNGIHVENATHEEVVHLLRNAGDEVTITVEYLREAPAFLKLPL
# Biological target: T1, APBA1_1, Q02410
# Assay: holdup assay
# Set-up: key: below the threshold = too weak to quantify, mostly under pKd 3.1 to 4
# Conditions: plain residues with an end cap or a label only (N-terminal biotin on a linker: ado-ado)
row,Binder,pKd
1,"NVYGIESVKI [GRIA2, P42262]",3.52
2,"TISFTQTSQF [SLC1A1, P43005]",below the threshold

# Biological target: T2, APBA1_2, Q02410
# Assay: holdup assay
# Set-up: key: below the threshold = too weak to quantify, mostly under pKd 3.1 to 4
# Conditions: plain residues with an end cap or a label only (N-terminal biotin on a linker: ado-ado)
row,Binder,pKd
1,"NVYGIESVKI [GRIA2, P42262]",3.68
2,"TISFTQTSQF [SLC1A1, P43005]",below the threshold

# Biological target: T3, APBA2_2, Q99767
# Assay: holdup assay
# Set-up: key: below the threshold = too weak to quantify, mostly under pKd 3.1 to 4
# Conditions: plain residues with an end cap or a label only (N-terminal biotin on a linker: ado-ado)
row,Binder,pKd
1,"NVYGIESVKI [GRIA2, P42262]",3.6
2,"TISFTQTSQF [SLC1A1, P43005]",below the threshold

# Biological target: T4, ARHGEF11, O15085
# Assay: holdup assay
# Set-up: key: below the threshold = too weak to quantify, mostly under pKd 3.1 to 4
# Conditions: plain residues with an end cap or a label only (N-terminal biotin on a linker: ado-ado)
row,Binder,pKd
1,"NVYGIESVKI [GRIA2, P42262]",3.58
2,"TISFTQTSQF [SLC1A1, P43005]",3.79

# Biological target: T5, DFNB31_1, Q9P202
# Assay: holdup assay
# Set-up: key: below the threshold = too weak to quantify, mostly under pKd 3.1 to 4
# Conditions: plain residues with an end cap or a label only (N-terminal biotin on a linker: ado-ado)
row,Binder,pKd
1,"NVYGIESVKI [GRIA2, P42262]",below the threshold
2,"TISFTQTSQF [SLC1A1, P43005]",below the threshold

# Biological target: DLG2_3, Q15700
# Assay: holdup assay
# Set-up: key: below the threshold = too weak to quantify, mostly under pKd 3.1 to 4
# Conditions: plain residues with an end cap or a label only (N-terminal biotin on a linker: ado-ado)
row,Binder,pKd
1,"NVYGIESVKI [GRIA2, P42262]",3.81
2,"TISFTQTSQF [SLC1A1, P43005]",3.71

# Biological target: T6, DLG3_3, Q92796
# Assay: holdup assay
# Set-up: key: below the threshold = too weak to quantify, mostly under pKd 3.1 to 4
# Conditions: plain residues with an end cap or a label only (N-terminal biotin on a linker: ado-ado)
row,Binder,pKd
1,"NVYGIESVKI [GRIA2, P42262]",below the threshold
2,"TISFTQTSQF [SLC1A1, P43005]",below the threshold

# Biological target: DLG5_1, Q8TDM6
# Sequence (Q8TDM6 617-713): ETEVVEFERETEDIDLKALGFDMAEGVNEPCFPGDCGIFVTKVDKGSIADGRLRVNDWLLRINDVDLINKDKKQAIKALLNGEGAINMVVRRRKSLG
# Assay: holdup assay
# Set-up: key: below the threshold = too weak to quantify, mostly under pKd 3.1 to 4
# Conditions: plain residues with an end cap or a label only (N-terminal biotin on a linker: ado-ado)
row,Binder,pKd
1,"NVYGIESVKI [GRIA2, P42262]",3.59
2,"TISFTQTSQF [SLC1A1, P43005]",below the threshold

# Biological target: GRID2IP_2, A4D2P6
# Sequence (A4D2P6 272-370): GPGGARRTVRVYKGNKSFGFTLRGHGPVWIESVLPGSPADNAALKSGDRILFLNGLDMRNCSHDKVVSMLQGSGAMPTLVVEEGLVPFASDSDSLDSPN
# Assay: holdup assay
# Set-up: key: below the threshold = too weak to quantify, mostly under pKd 3.1 to 4
# Conditions: plain residues with an end cap or a label only (N-terminal biotin on a linker: ado-ado)
row,Binder,pKd
1,"NVYGIESVKI [GRIA2, P42262]",below the threshold
2,"TISFTQTSQF [SLC1A1, P43005]",below the threshold

# Biological target: T7, GRIP1_2, Q9Y3R0
# Assay: holdup assay
# Set-up: key: below the threshold = too weak to quantify, mostly under pKd 3.1 to 4
# Conditions: plain residues with an end cap or a label only (N-terminal biotin on a linker: ado-ado)
row,Binder,pKd
1,"NVYGIESVKI [GRIA2, P42262]",below the threshold
2,"TISFTQTSQF [SLC1A1, P43005]",below the threshold

# Biological target: T8, GRIP1_3, Q9Y3R0
# Assay: holdup assay
# Set-up: key: below the threshold = too weak to quantify, mostly under pKd 3.1 to 4
# Conditions: plain residues with an end cap or a label only (N-terminal biotin on a linker: ado-ado)
row,Binder,pKd
1,"NVYGIESVKI [GRIA2, P42262]",below the threshold
2,"TISFTQTSQF [SLC1A1, P43005]",below the threshold

# Biological target: T9, GRIP1_4, Q9Y3R0
# Assay: holdup assay
# Set-up: key: below the threshold = too weak to quantify, mostly under pKd 3.1 to 4
# Conditions: plain residues with an end cap or a label only (N-terminal biotin on a linker: ado-ado)
row,Binder,pKd
1,"NVYGIESVKI [GRIA2, P42262]",below the threshold
2,"TISFTQTSQF [SLC1A1, P43005]",below the threshold

# Biological target: GRIP2_5, Q9C0E4
# Sequence (Q9C0E4 544-642): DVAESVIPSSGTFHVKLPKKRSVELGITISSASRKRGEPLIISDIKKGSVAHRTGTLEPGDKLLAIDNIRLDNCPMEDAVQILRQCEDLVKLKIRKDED
# Assay: holdup assay
# Set-up: key: below the threshold = too weak to quantify, mostly under pKd 3.1 to 4
# Conditions: plain residues with an end cap or a label only (N-terminal biotin on a linker: ado-ado)
row,Binder,pKd
1,"NVYGIESVKI [GRIA2, P42262]",below the threshold
2,"TISFTQTSQF [SLC1A1, P43005]",below the threshold

# Biological target: T10, HTRA4, P83105
# Assay: holdup assay
# Set-up: key: below the threshold = too weak to quantify, mostly under pKd 3.1 to 4
# Conditions: plain residues with an end cap or a label only (N-terminal biotin on a linker: ado-ado)
row,Binder,pKd
1,"NVYGIESVKI [GRIA2, P42262]",3.74
2,"TISFTQTSQF [SLC1A1, P43005]",below the threshold

# Biological target: IL16_1, Q14005
# Sequence (Q14005 210-306): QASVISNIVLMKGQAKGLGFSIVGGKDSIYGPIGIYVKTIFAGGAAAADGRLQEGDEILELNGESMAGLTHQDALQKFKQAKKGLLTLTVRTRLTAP
# Assay: holdup assay
# Set-up: key: below the threshold = too weak to quantify, mostly under pKd 3.1 to 4
# Conditions: plain residues with an end cap or a label only (N-terminal biotin on a linker: ado-ado)
row,Binder,pKd
1,"NVYGIESVKI [GRIA2, P42262]",below the threshold
2,"TISFTQTSQF [SLC1A1, P43005]",below the threshold

# Biological target: IL16_3, Q14005
# Sequence (Q14005 1107-1207): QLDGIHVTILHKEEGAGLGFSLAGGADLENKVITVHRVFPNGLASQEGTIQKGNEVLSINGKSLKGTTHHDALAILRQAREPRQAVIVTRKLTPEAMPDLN
# Assay: holdup assay
# Set-up: key: below the threshold = too weak to quantify, mostly under pKd 3.1 to 4
# Conditions: plain residues with an end cap or a label only (N-terminal biotin on a linker: ado-ado)
row,Binder,pKd
1,"NVYGIESVKI [GRIA2, P42262]",below the threshold
2,"TISFTQTSQF [SLC1A1, P43005]",below the threshold

# Biological target: Inadl_4, Q8NI35
# Sequence (Q8NI35 547-651): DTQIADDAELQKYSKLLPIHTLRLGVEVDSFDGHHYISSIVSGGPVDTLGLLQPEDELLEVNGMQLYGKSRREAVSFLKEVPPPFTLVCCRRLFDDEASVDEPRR
# Assay: holdup assay
# Set-up: key: below the threshold = too weak to quantify, mostly under pKd 3.1 to 4
# Conditions: plain residues with an end cap or a label only (N-terminal biotin on a linker: ado-ado)
row,Binder,pKd
1,"NVYGIESVKI [GRIA2, P42262]",below the threshold
2,"TISFTQTSQF [SLC1A1, P43005]",below the threshold

# Biological target: MAST1, Q9Y2H9
# Sequence (Q9Y2H9 962-1065): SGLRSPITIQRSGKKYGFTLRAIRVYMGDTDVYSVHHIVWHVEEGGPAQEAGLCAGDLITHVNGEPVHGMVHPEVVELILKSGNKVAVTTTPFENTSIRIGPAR
# Assay: holdup assay
# Set-up: key: below the threshold = too weak to quantify, mostly under pKd 3.1 to 4
# Conditions: plain residues with an end cap or a label only (N-terminal biotin on a linker: ado-ado)
row,Binder,pKd
1,"NVYGIESVKI [GRIA2, P42262]",4.27
2,"TISFTQTSQF [SLC1A1, P43005]",below the threshold

# Biological target: T11, MPP6, Q9NZW5
# Assay: holdup assay
# Set-up: key: below the threshold = too weak to quantify, mostly under pKd 3.1 to 4
# Conditions: plain residues with an end cap or a label only (N-terminal biotin on a linker: ado-ado)
row,Binder,pKd
1,"NVYGIESVKI [GRIA2, P42262]",below the threshold
2,"TISFTQTSQF [SLC1A1, P43005]",below the threshold

# Biological target: T12, MPP7, Q5T2T1
# Assay: holdup assay
# Set-up: key: below the threshold = too weak to quantify, mostly under pKd 3.1 to 4
# Conditions: plain residues with an end cap or a label only (N-terminal biotin on a linker: ado-ado)
row,Binder,pKd
1,"NVYGIESVKI [GRIA2, P42262]",below the threshold
2,"TISFTQTSQF [SLC1A1, P43005]",below the threshold

# Biological target: NHERF2_2, Q15599
# Sequence (Q15599 142-238): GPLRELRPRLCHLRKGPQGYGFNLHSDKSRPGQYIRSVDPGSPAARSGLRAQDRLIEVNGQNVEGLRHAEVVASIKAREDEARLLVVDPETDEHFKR
# Assay: holdup assay
# Set-up: key: below the threshold = too weak to quantify, mostly under pKd 3.1 to 4
# Conditions: plain residues with an end cap or a label only (N-terminal biotin on a linker: ado-ado)
row,Binder,pKd
1,"NVYGIESVKI [GRIA2, P42262]",3.71
2,"TISFTQTSQF [SLC1A1, P43005]",4.42

# Biological target: PARD3_3, Q8TEW0
# Sequence (Q8TEW0 582-685): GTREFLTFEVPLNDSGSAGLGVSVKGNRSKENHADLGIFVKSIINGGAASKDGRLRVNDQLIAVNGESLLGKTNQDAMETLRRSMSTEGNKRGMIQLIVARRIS
# Assay: holdup assay
# Set-up: key: below the threshold = too weak to quantify, mostly under pKd 3.1 to 4
# Conditions: plain residues with an end cap or a label only (N-terminal biotin on a linker: ado-ado)
row,Binder,pKd
1,"NVYGIESVKI [GRIA2, P42262]",3.78
2,"TISFTQTSQF [SLC1A1, P43005]",below the threshold

# Biological target: T13, PDZD7_3, Q9H5P4
# Assay: holdup assay
# Set-up: key: below the threshold = too weak to quantify, mostly under pKd 3.1 to 4
# Conditions: plain residues with an end cap or a label only (N-terminal biotin on a linker: ado-ado)
row,Binder,pKd
1,"NVYGIESVKI [GRIA2, P42262]",below the threshold
2,"TISFTQTSQF [SLC1A1, P43005]",below the threshold

# Biological target: T14, SNTG2, Q9NY99
# Assay: holdup assay
# Set-up: key: below the threshold = too weak to quantify, mostly under pKd 3.1 to 4
# Conditions: plain residues with an end cap or a label only (N-terminal biotin on a linker: ado-ado)
row,Binder,pKd
1,"NVYGIESVKI [GRIA2, P42262]",below the threshold
2,"TISFTQTSQF [SLC1A1, P43005]",below the threshold
